B1: CPEB3 Ribozyme (parent)
chain: UAACAGGGGGCCACAGCAGAAGCGUUCACGUCGCAGCCCCUGUCAGAUUCUGGUGAAUCUGCGAAUUCUGCUGUAUAUCUC

The source of these data is the RNAGym collection of RNA variant scans (doi:10.1093/nar/gkz1192).

This data set covers variants of B1. The data set can be described thus: self-cleavage, relative activity (ratio to wild type); higher = more cleavage; in vitro, sequencing. Put shortly: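 Libraries of CPEB3 self-cleaving ribozyme mutants came from rounds of error-prone PCR and carried barcodes, which DNA sequencing matched to variants. In vitro transcription used T7 RNA polymerase at 37°C for 5 hours, with a further 15 min in DNase I before EDTA stopped the reaction; the ribozymes cleaved during both steps. The RNA was reverse transcribed with template switching and sequenced on Illumina. Relative activity is the cleaved/total read fraction of a variant divided by that of the unmutated ribozyme, averaged over three batches with at least 5 reads.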
C23U C29U: the self-cleavage was 0.21.

C23U U43C: the self-cleavage was found to be 0.3.

Turning to C23U U43G, the self-cleavage is 0.11.

Take C23U U43A: the self-cleavage was determined as 0.34.

As to C23U U60A, the self-cleavage was 0.26.

As to C23U U60C, the self-cleavage turned out to be 0.15.

For the variant C23G U74A, the self-cleavage amounted to 0.28.

On to C23G U74C, for which the self-cleavage amounted to 0.41.

As for G24C G30C, the self-cleavage stood at 0.11.

Regarding G24U A64G, the self-cleavage is 0.18.

For the variant G24U A64U, the self-cleavage was determined as 0.3.

For the variant C23U A77G, the self-cleavage came to 0.34.

As to C23U A77U, the self-cleavage was determined as 0.23.

As for C23U U78C, the self-cleavage was determined as 0.27.

Consider G24A C68A, for which the self-cleavage stood at 0.07.

For the variant G24U A35G, the self-cleavage was 0.9.

With G24U A35U, the self-cleavage amounted to 0.19.

In the case of G24A G46A, the self-cleavage was found to be 0.2.

As for G24U, the self-cleavage is 0.3.

With G24A, the self-cleavage was 0.27.

In the case of G24C, the self-cleavage was 0.31.

As for C23U U80A, the self-cleavage came to 0.28.

For the variant C23U U80G, the self-cleavage is 0.26.

In the case of C23G U72C, the self-cleavage is 0.13.

With C23G U72A, the self-cleavage is 0.04.

For the variant C23U U67A, the self-cleavage was 0.16.

In the case of C23U U67C, the self-cleavage came out at 0.28.

As to C23U U67G, the self-cleavage was found to be 0.38.

Consider C23A U54C, for which the self-cleavage amounted to 0.18.

For G24A U26A, the self-cleavage came out at 0.16.

Turning to G24A U26C, the self-cleavage worked out at 0.3.

For the variant G24A C39U, the self-cleavage came to 0.17.

On to G24C U43C, for which the self-cleavage came to 0.18.

Consider G24C U43A, for which the self-cleavage is 0.54.

On to G24A A28G, for which the self-cleavage was 0.25.

Turning to G24A A28U, the self-cleavage stood at 0.14.

Regarding G24A A35U, the self-cleavage is 0.17.

Consider G24A A35G, for which the self-cleavage was 0.38.

In the case of C23A A35U, the self-cleavage turned out to be 0.31.

As for C23A A35G, the self-cleavage was found to be 0.27.

For C23A C44U, the self-cleavage amounted to 0.08.

For the variant C23U C32U, the self-cleavage came out at 0.14.

In the case of G24C A45G, the self-cleavage worked out at 0.21.

On to G24C A45U, for which the self-cleavage was 0.13.

For G24A C44U, the self-cleavage is 0.18.

Turning to G24C U25A, the self-cleavage was 0.21.

Turning to G24A U43A, the self-cleavage came to 0.17.

For G24A U43C, the self-cleavage turned out to be 0.32.

Turning to G24A C40U, the self-cleavage came out at 0.1.

As to C23U A57U, the self-cleavage stood at 0.19.

On to C23U A57G, for which the self-cleavage came to 0.31.

In the case of C23U A47G, the self-cleavage was 0.18.

Turning to C23U A47U, the self-cleavage is 0.2.

In the case of G24C G63A, the self-cleavage is 0.18.

C23U C39A: the self-cleavage was determined as 0.19.

With C23U C39U, the self-cleavage was 0.24.

For G24C U80C, the self-cleavage came to 0.36.

For G24A C32A, the self-cleavage amounted to 0.29.

Take C23G C62A: the self-cleavage was determined as 0.29.

Consider G24A U49C, for which the self-cleavage worked out at 0.21.

For G24A U49A, the self-cleavage is 0.39.

With C23U C37U, the self-cleavage came out at 0.2.

As for C23U U54A, the self-cleavage was 0.31.

Turning to C23U U54G, the self-cleavage is 0.31.

As for C23U U54C, the self-cleavage came to 0.16.

Turning to C23U C44A, the self-cleavage amounted to 0.38.

C23G U67A: the self-cleavage was found to be 0.25.

In the case of C23G U67C, the self-cleavage is 0.12.

Consider G24A U54A, for which the self-cleavage was determined as 0.25.

G24A U54G: the self-cleavage came out at 0.15.

G24A U54C: the self-cleavage stood at 0.27.

As to C23U U48C, the self-cleavage stood at 0.14.

As to G24C C29A, the self-cleavage was 0.23.

For C23A U78G, the self-cleavage turned out to be 0.08.

On to C23A U78A, for which the self-cleavage is 0.21.

For C23A U78C, the self-cleavage worked out at 0.12.

As to C23U U72G, the self-cleavage was 0.1.

As to C23U U72C, the self-cleavage worked out at 0.48.

Regarding C23U U72A, the self-cleavage came out at 0.22.

Consider C23A U76C, for which the self-cleavage is 0.21.

As to C23A U43A, the self-cleavage was 0.28.

Take C23A U43C: the self-cleavage was found to be 0.23.

Consider C23G U26C, for which the self-cleavage came to 0.25.

Turning to C23G U26A, the self-cleavage worked out at 0.1.

C23G C29G: the self-cleavage amounted to 0.08.

Regarding C23G C29U, the self-cleavage stood at 0.36.

Take C23A C40G: the self-cleavage turned out to be 0.23.

As for C23U A56U, the self-cleavage was found to be 0.15.

With C23U A56G, the self-cleavage stood at 0.31.

For C23U G70A, the self-cleavage was found to be 0.17.

On to C23A G63A, for which the self-cleavage came out at 0.09.

Take C23G U43C: the self-cleavage was determined as 0.25.

As to C23U A35G, the self-cleavage stood at 0.95.

With C23U A35U, the self-cleavage was 0.16.

On to C23A U69C, for which the self-cleavage came out at 0.12.

As to C23U A45U, the self-cleavage was 0.27.

Turning to C23U A45G, the self-cleavage amounted to 0.25.

On to C23U A45C, for which the self-cleavage turned out to be 0.45.

For C23G A75G, the self-cleavage was found to be 0.14.

C23G A75U: the self-cleavage is 0.07.

For the variant C23U U25C, the self-cleavage stood at 0.19.

For C23U U25A, the self-cleavage came to 0.14.

In the case of C23G U25C, the self-cleavage turned out to be 0.28.

G24A C37A: the self-cleavage came to 0.17.

Turning to C23A U60A, the self-cleavage was determined as 0.19.

Regarding C23A U60G, the self-cleavage was found to be 0.06.

Turning to C23A U60C, the self-cleavage was 0.33.

For the variant C23A U48C, the self-cleavage amounted to 0.16.

G24C G61A: the self-cleavage amounted to 0.18.

For G24A A57G, the self-cleavage is 0.15.

With G24A A57C, the self-cleavage is 0.15.

For C23A U66A, the self-cleavage came to 0.1.

Take C23G G63U: the self-cleavage came out at 0.32.

For G24A A45U, the self-cleavage was 0.25.

As to G24A A45G, the self-cleavage is 0.24.

With G24A A45C, the self-cleavage was found to be 0.36.

Consider C23U G55A, for which the self-cleavage came to 0.24.

Regarding G24A G73C, the self-cleavage is 0.4.

G24A G73A: the self-cleavage came out at 0.14.

G24C U54A: the self-cleavage was determined as 0.13.

Turning to G24C U54C, the self-cleavage was determined as 0.14.

Turning to C23A G73A, the self-cleavage is 0.23.

As for C23G A77U, the self-cleavage is 0.36.

On to C23G A77C, for which the self-cleavage stood at 0.27.

Turning to C23G A77G, the self-cleavage stood at 0.67.

Regarding G24C U76C, the self-cleavage came to 0.2.

For the variant C23G U80C, the self-cleavage stood at 0.13.

As to C23G U80A, the self-cleavage came to 0.47.

As for C23U U69A, the self-cleavage was determined as 0.1.

Take C23U U69C: the self-cleavage was 0.19.

Consider G24A G42A, for which the self-cleavage amounted to 0.12.

As to C23G U51G, the self-cleavage was determined as 0.5.

For C23G U51A, the self-cleavage amounted to 0.16.

With C23G A57G, the self-cleavage is 0.16.

As for C23G U48C, the self-cleavage is 0.29.

Consider C23U U49C, for which the self-cleavage stood at 0.28.

As to C23U U49G, the self-cleavage turned out to be 0.41.

Take C23G A56U: the self-cleavage was found to be 0.4.

On to C23G A56G, for which the self-cleavage worked out at 0.23.

Take C23G A47G: the self-cleavage is 0.28.

In the case of C23A U25A, the self-cleavage was 0.27.

Consider C23A U25C, for which the self-cleavage was determined as 0.36.

For the variant C23G A64U, the self-cleavage came out at 0.26.

Take C23G A64G: the self-cleavage was 0.08.

On to C23U A75G, for which the self-cleavage came to 0.27.

C23U U66C: the self-cleavage stood at 0.15.

Turning to C23U A64C, the self-cleavage is 0.09.

Consider C23U A64G, for which the self-cleavage was found to be 0.26.

Turning to C23U A64U, the self-cleavage stood at 0.16.

Consider G24C U66C, for which the self-cleavage came to 0.26.

As for G24A U74A, the self-cleavage turned out to be 0.18.

Turning to G24A U74G, the self-cleavage came to 0.13.

For the variant C23G U54C, the self-cleavage came out at 0.28.

As for C23G U54G, the self-cleavage was determined as 0.26.

Consider C23G U54A, for which the self-cleavage came out at 0.26.

As for C23U U51A, the self-cleavage stood at 0.2.

As to C23U U51C, the self-cleavage is 0.07.

For the variant C23U C62G, the self-cleavage amounted to 0.09.

Turning to G24A U31A, the self-cleavage turned out to be 0.2.

With G24A U31C, the self-cleavage was 0.15.

Consider G24U A47G, for which the self-cleavage is 0.31.

For C23G A28U, the self-cleavage is 0.23.

Take C23G A28G: the self-cleavage was 0.17.

With G24A U78A, the self-cleavage is 0.07.

Consider G24A U78C, for which the self-cleavage was determined as 0.33.

As to G24A U78G, the self-cleavage came out at 0.16.

For G24A U58A, the self-cleavage stood at 0.34.
